From the supplement of paper PMC12338614
± gives the uncertainty stated by the source.

B1: library; numbered along this chain (parent)
chain: MEVVDPQQLGMFTEGELMSVGMDTFIHRIDSTEVIYQPRRKRAKLIGKYLMGDLLGEGSYGKVKEVLDSETLCRRAVKILKKKKLRRIPNGEANVKKEIQLLRRLRHKNVIQLVDVLYNEEKQKMYMVMEYCVCGMQEMLDSVPEKRFPVCQAHGYFCQLIDGLEYLHSQGIVHKDIKPGNLLLTTGGTLKISDLGVAEALHPFAADDTCRTSQGSPAFQPPEIANGLDTFSGFKVDIWSAGVTLYNITTGLYPFEGDNIYKLFENIGKGSYAIPGDCGPPLSDLLKGMLEYEPAKRFSIRQIRQHSWFRKKHPPAEAPVPIPPSPDTKDRWRSMTVVPYLEDLHGADEDEDLFDIEDDIIYTQDFTVPGQVPEEEASHNGQRRGLPKAVCMNGTEAAQLSTKSRAEGRAPNPARKACSASSKIRRLSACKQQ

Variants of: B1
Test: STK11 functional score (HeLa growth suppression), rescaled enrichment; synonymous median = 1, nonsense median = 0 (normalised score)
Conditions: with HeLa; variant type: missense
Outline: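 Functional scores are post/pre-selection log ratios corrected to wild type, rescaled to synonymous and nonsense medians, merged over codons and replicate transfections, and given bootstrapped error. They come from POPCode libraries of codon-optimised STK11 integrated by Bxb1 at an AAVS1 landing pad in HeLa, three regions each transfected three times, with BFP-negative, mCherry-positive integrants sorted by FACS and tiled gDNA amplicons sequenced on NextSeq.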
G187A was tested, and the STK11 functional score was 1.09 ± 0.18.
L80I gave an STK11 functional score of 0.964 ± 0.13.
Variant T24I has an STK11 functional score of 1.02 ± 0.2.
In the case of L290P, the STK11 functional score is reported as 0.264 ± 0.16.
L290D was tested, and the STK11 functional score was -0.275 ± 0.15.
L117T gave an STK11 functional score of 0.762 ± 0.38.
T395I gave an STK11 functional score of 0.971 ± 0.23.
In the case of T395G, the STK11 functional score is reported as 1.49 ± 0.32.
For Q302R, the STK11 functional score was 1.53 ± 0.25.
Work on Q302L yielded an STK11 functional score of 1.45 ± 0.23.
Variant V34F has an STK11 functional score of 0.976 ± 0.2.
For V34C, the STK11 functional score was 0.884 ± 0.4.
Variant R405Y has an STK11 functional score of 0.397 ± 0.55.
With R405D the STK11 functional score was 0.895 ± 0.18.
Variant R405L has an STK11 functional score of 1.59 ± 0.28.
In the case of R405P, the STK11 functional score is reported as 1.27 ± 0.49.
I111T gave an STK11 functional score of 0.687 ± 0.27.
With I111D the STK11 functional score was 1.6 ± 0.19.
With I111W the STK11 functional score was -0.448 ± 0.08.
For P275F, the STK11 functional score was 0.767 ± 0.26.
For I322L, the STK11 functional score was 0.886 ± 0.078.
Variant I322M has an STK11 functional score of 0.829 ± 0.47.
In the case of Q432D, the STK11 functional score is reported as 1.46 ± 0.21.
Q371E gave an STK11 functional score of 1.26 ± 0.48.
A218S gave an STK11 functional score of 1.09 ± 0.17.
For E407F, the STK11 functional score was 1.26 ± 0.58.
P254A was tested, and the STK11 functional score was -0.109 ± 0.13.
Variant P254G has an STK11 functional score of 0.298 ± 0.11.
R147A gave an STK11 functional score of 0.87 ± 0.19.
G288A was tested, and the STK11 functional score was 0.95 ± 0.38.
For D350M, the STK11 functional score was 1.65 ± 0.15.
Work on D350C yielded an STK11 functional score of 1.51 ± 0.31.
N109D was tested, and the STK11 functional score was 0.477 ± 0.18.
Work on L285W yielded an STK11 functional score of -0.0646 ± 0.056.
L285D was tested, and the STK11 functional score was -0.216 ± 0.087.
L285V was tested, and the STK11 functional score was 0.239 ± 0.1.
L285F gave an STK11 functional score of 0.988 ± 0.25.
Work on L102H yielded an STK11 functional score of 1.61 ± 0.3.
For L102A, the STK11 functional score was 0.777 ± 0.23.
For V128H, the STK11 functional score was 0.71 ± 0.17.
C73D gave an STK11 functional score of 1.49 ± 0.27.
Variant C73P has an STK11 functional score of 0.227 ± 0.098.
Variant N393P has an STK11 functional score of 1.59 ± 0.23.
In the case of L140R, the STK11 functional score is reported as 0.437 ± 0.11.
For N259F, the STK11 functional score was 1.25 ± 0.24.
N259D was tested, and the STK11 functional score was 1.12 ± 0.63.
L160G showed an STK11 functional score of -0.0371 ± 0.071.
For S378K, the STK11 functional score was 1.6 ± 0.28.
S378Q showed an STK11 functional score of 0.786 ± 0.15.
In the case of G163R, the STK11 functional score is reported as 0.0418 ± 0.45.
In the case of S19A, the STK11 functional score is reported as 0.891 ± 0.38.
Variant A410P has an STK11 functional score of 0.257 ± 0.39.
I274S was tested, and the STK11 functional score was 0.98 ± 0.21.
Variant I274Q has an STK11 functional score of 1.62 ± 0.2.
T249S showed an STK11 functional score of 1.24 ± 0.27.
T249P was tested, and the STK11 functional score was -0.0108 ± 0.27.
M136Y gave an STK11 functional score of -0.238 ± 0.083.
M136D gave an STK11 functional score of -0.0676 ± 0.092.
Q100H showed an STK11 functional score of 1.28 ± 0.4.
G394A gave an STK11 functional score of 1.32 ± 0.31.
With G394K the STK11 functional score was 1.6 ± 0.28.
With T189G the STK11 functional score was 0.924 ± 0.71.
V3S gave an STK11 functional score of 1.35 ± 0.17.
E265G showed an STK11 functional score of 0.962 ± 0.17.
With I99D the STK11 functional score was 0.335 ± 0.1.
For H345I, the STK11 functional score was 1.44 ± 0.22.
In the case of H345W, the STK11 functional score is reported as 1.56 ± 0.11.
For D162C, the STK11 functional score was 1.28 ± 0.15.
With L54T the STK11 functional score was 1.47 ± 0.23.
With T230G the STK11 functional score was 0.522 ± 0.15.
Variant P369L has an STK11 functional score of 1.13 ± 0.25.
With P369T the STK11 functional score was 1.53 ± 0.11.
In the case of K48A, the STK11 functional score is reported as 0.852 ± 0.2.
In the case of V4F, the STK11 functional score is reported as 0.964 ± 0.46.
G61R gave an STK11 functional score of 0.216 ± 0.14.
Work on D348N yielded an STK11 functional score of 0.723 ± 0.63.
In the case of K329R, the STK11 functional score is reported as 0.535 ± 0.3.
K329S was tested, and the STK11 functional score was 0.673 ± 0.35.
Work on K329M yielded an STK11 functional score of 1.55 ± 0.15.
D53L gave an STK11 functional score of 0.555 ± 0.21.
With F366I the STK11 functional score was 1.08 ± 0.28.
For K416Y, the STK11 functional score was 1.2 ± 0.58.
For P411I, the STK11 functional score was 1.55 ± 0.15.
G91M was tested, and the STK11 functional score was 0.64 ± 0.2.
Work on G91S yielded an STK11 functional score of 0.833 ± 0.096.
E396L was tested, and the STK11 functional score was 1.14 ± 0.28.
For E396Q, the STK11 functional score was 1.18 ± 0.64.
S169R showed an STK11 functional score of 0.882 ± 0.35.
For S169A, the STK11 functional score was 1.09 ± 0.49.
For G52C, the STK11 functional score was 1.49 ± 0.16.
Work on F204I yielded an STK11 functional score of 1.23 ± 0.25.
Work on Q305W yielded an STK11 functional score of 0.981 ± 0.4.
Q305T was tested, and the STK11 functional score was 1.5 ± 0.24.
For E342I, the STK11 functional score was 1.42 ± 0.26.
E342Y was tested, and the STK11 functional score was 1.38 ± 0.12.
M51G gave an STK11 functional score of 1.1 ± 0.091.
With Q152P the STK11 functional score was 0.0642 ± 0.62.
For C278D, the STK11 functional score was 1.03 ± 0.54.
In the case of C278A, the STK11 functional score is reported as 1.29 ± 0.29.
C278F showed an STK11 functional score of 0.811 ± 0.14.
Variant C278G has an STK11 functional score of 1.08 ± 0.34.
A429V showed an STK11 functional score of 1.47 ± 0.33.
For A429Q, the STK11 functional score was 1.56 ± 0.36.
I267N showed an STK11 functional score of 0.995 ± 0.36.
For S307F, the STK11 functional score was 1.38 ± 0.1.
L17F gave an STK11 functional score of 0.925 ± 0.58.
Q137N was tested, and the STK11 functional score was 1.62 ± 0.28.
In the case of T250S, the STK11 functional score is reported as 1.37 ± 0.27.
For V368E, the STK11 functional score was 1.42 ± 0.22.
For G242F, the STK11 functional score was 0.0262 ± 0.098.
For K78T, the STK11 functional score was 0.086 ± 0.54.
T71D showed an STK11 functional score of 1.46 ± 0.096.
With I192C the STK11 functional score was 1.43 ± 0.27.
For L113P, the STK11 functional score was 0.54 ± 0.081.
In the case of G15C, the STK11 functional score is reported as 1.15 ± 0.21.
G15A was tested, and the STK11 functional score was 0.969 ± 0.36.
I29S showed an STK11 functional score of 1.32 ± 0.17.
T186V showed an STK11 functional score of 1.24 ± 0.38.
With V243T the STK11 functional score was 1.29 ± 0.26.
V63Q showed an STK11 functional score of 0.451 ± 0.38.
V63L gave an STK11 functional score of 0.458 ± 0.099.
With E375L the STK11 functional score was 1.04 ± 0.15.
With E375I the STK11 functional score was 1.59 ± 0.28.
In the case of K262E, the STK11 functional score is reported as 1.31 ± 0.85.
K262W showed an STK11 functional score of 1.05 ± 0.19.
K262Y gave an STK11 functional score of 1.29 ± 0.3.
L72R showed an STK11 functional score of 0.386 ± 0.11.
In the case of L72Q, the STK11 functional score is reported as 1.26 ± 0.14.
In the case of L72K, the STK11 functional score is reported as 1.08 ± 0.79.
L72H was tested, and the STK11 functional score was 0.0684 ± 0.095.
In the case of D355S, the STK11 functional score is reported as 1.48 ± 0.18.
In the case of D355C, the STK11 functional score is reported as 1.31 ± 0.13.
Q7S showed an STK11 functional score of 1.02 ± 0.31.
Work on E138R yielded an STK11 functional score of -0.217 ± 0.089.
C158W showed an STK11 functional score of 0.384 ± 0.11.
C158G was tested, and the STK11 functional score was 0.418 ± 0.096.
Work on K175Y yielded an STK11 functional score of 0.592 ± 0.48.
With E351W the STK11 functional score was 1.48 ± 0.16.
R28L gave an STK11 functional score of 0.637 ± 0.15.
W239Y was tested, and the STK11 functional score was 0.934 ± 0.097.
Variant W239E has an STK11 functional score of -0.254 ± 0.099.
For E65G, the STK11 functional score was 0.154 ± 0.087.
With E65W the STK11 functional score was 1.36 ± 0.12.
Work on R331W yielded an STK11 functional score of 1.49 ± 0.27.
In the case of R409D, the STK11 functional score is reported as 1.09 ± 0.66.
In the case of T185Y, the STK11 functional score is reported as 0.976 ± 0.12.
Variant S213P has an STK11 functional score of 1.32 ± 0.26.
H107W showed an STK11 functional score of 0.165 ± 0.27.
For H107T, the STK11 functional score was 1.02 ± 0.7.
S216A gave an STK11 functional score of 0.851 ± 0.13.
With D359S the STK11 functional score was 1.15 ± 0.22.
Work on D359M yielded an STK11 functional score of 1.6 ± 0.14.
G58W gave an STK11 functional score of 0.24 ± 0.092.
In the case of G58N, the STK11 functional score is reported as 0.559 ± 0.29.
With G408M the STK11 functional score was 1.56 ± 0.17.
Work on G10D yielded an STK11 functional score of 1.4 ± 0.1.
Variant Q112I has an STK11 functional score of 1.52 ± 0.19.
Variant M392N has an STK11 functional score of 0.559 ± 0.12.
In the case of M392W, the STK11 functional score is reported as 0.68 ± 0.21.
Variant G385T has an STK11 functional score of 1.58 ± 0.21.
In the case of V337F, the STK11 functional score is reported as 0.545 ± 0.31.
With L167R the STK11 functional score was -0.0722 ± 0.082.
L341F gave an STK11 functional score of 0.562 ± 0.13.
For L341S, the STK11 functional score was 0.93 ± 0.16.
Variant A389R has an STK11 functional score of 1.56 ± 0.29.
For A389H, the STK11 functional score was 1.51 ± 0.12.
Work on V66G yielded an STK11 functional score of 0.814 ± 0.17.
